Columns and labels:
[1] = molecular target: malate dehydrogenase (UniProt P00346)
[2] = molecular target: citrate synthase (UniProt P00889)
[3] = molecular target: luciferase [luciferase: P08659]
[4] = molecular target: citrate synthase (UniProt P00889); remark: listed apart in the source
[5] = molecular target: Synechococcus sp. phage S-ShM2 18 kDa small heat shock protein (HspSP-ShM2) (cyanophage S-ShM2 (Synechococcus sp. phage)); assay: SEC; Superdex 200 Increase 10/300 GL, TEN buffer (50 mM Tris-HCl pH 8.0, 0.1 mM EDTA, 150 mM NaCl) without detergent, room temperature, 0.5 ml/min; HspSP-ShM2 alone at 30 and 60 uM (the ~200 kDa species only at 60 uM); masses from a standard curve

Sequence of UniProt P00889 (P00889 28-464): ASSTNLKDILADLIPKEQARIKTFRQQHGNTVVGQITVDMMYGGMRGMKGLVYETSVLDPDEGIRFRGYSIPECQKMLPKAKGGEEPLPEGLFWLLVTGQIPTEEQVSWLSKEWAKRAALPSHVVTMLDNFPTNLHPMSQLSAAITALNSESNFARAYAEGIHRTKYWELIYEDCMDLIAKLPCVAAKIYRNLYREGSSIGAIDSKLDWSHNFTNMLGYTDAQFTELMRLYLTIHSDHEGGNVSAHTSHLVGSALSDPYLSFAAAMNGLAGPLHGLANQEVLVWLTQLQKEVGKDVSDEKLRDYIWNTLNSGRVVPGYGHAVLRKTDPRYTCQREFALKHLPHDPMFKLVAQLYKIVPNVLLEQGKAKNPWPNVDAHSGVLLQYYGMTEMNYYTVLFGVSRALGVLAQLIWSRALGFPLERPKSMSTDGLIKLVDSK
Sequence of UniProt P00346 (P00346 25-338): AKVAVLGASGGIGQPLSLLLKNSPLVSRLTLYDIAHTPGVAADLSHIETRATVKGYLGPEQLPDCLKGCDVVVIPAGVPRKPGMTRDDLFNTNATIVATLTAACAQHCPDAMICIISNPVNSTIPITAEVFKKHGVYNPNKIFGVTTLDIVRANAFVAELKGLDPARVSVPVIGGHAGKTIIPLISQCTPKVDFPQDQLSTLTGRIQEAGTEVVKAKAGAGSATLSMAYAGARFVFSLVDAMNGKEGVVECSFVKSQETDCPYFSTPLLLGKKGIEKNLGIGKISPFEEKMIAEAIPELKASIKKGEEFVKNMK

Synechococcus sp. phage S-ShM2 18 kDa small heat shock protein (HspSP-ShM2) (natural protein)
percent of heat-induced aggregation of MDH (light scattering at 320 nm, 90 min at 45°C, MDH alone = 100%) at 6:1 and 12:1 HspSP-ShM2:MDH (26.9 and 6.5%) [1]: 26.9%
percent of heat-induced aggregation of CS (light scattering at 320 nm, 90 min at 45°C, CS alone = 100%) at 5:1 and 10:1 HspSP-ShM2:CS (41.6 and 8.17%) [2]: 41.6%
percent of heat-induced aggregation of Luc (light scattering at 320 nm, 30 min at 42°C, Luc alone = 100%) at 6:1 and 12:1 HspSP-ShM2:Luc (45.8 and 6.4%) [3]: 45.8%
decrease of the ability to prevent heat-induced aggregation of CS in the presence of 0.23 mM Triton X-100, at 5:1 and 10:1 HspSP-ShM2:CS (20% and 12%) [4]: 20%
stoichiometry N [5]: 12

Reference: paper PMC5028025
